From the supplement of paper PMC10567573

B1: HDAC6 (parent)
chain: QYMNEGELRVLADTYDSVYLHPNS
B2: VAMP4 (parent)
chain: FLRGPSGPRFGPRNDKIKHVQNQV

Variants of: B1
Test: protein stability index of a GFP-peptide fusion (GPS, HEK-293T) (PSI 1-6); higher = more stable
Details: c terminus: a fixed tail appended
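Note: lentivirally expressed fusions sorted by FACS into six bins by GFP to DsRed ratio, PSI derived from sequencing read proportions per bin multiplied by bin number.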

Protein stability index: each site, then its substitutions
M3: V 3.46 | T 2.99 | W 2.29 | F 2.15 | D 4.19 | H 3.64 | L 2.38 | I 3.39 | P 4.02 | K 3.39 | C 3.07 | A 3.17 | R 3.65 | N 3.41 | Q 3.73 | S 3.23 | E 3.88 | Y 2.56
Q1: C 1.52 | F 2.53 | R 1.43 | S 2.04 | E 1.93 | A 1.69 | K 1.92 | Y 1.69 | P 2.63 | G 1.89 | M 1.66 | T 1.84 | W 2.21 | I 1.83 | D 3.16
N4: T 2.16 | H 2.23 | L 1.55 | V 1.68 | Y 1.93 | G 1.89 | C 2.08 | S 2.05 | P 2.81 | I 2.49 | K 2.2 | M 2.76 | F 1.21 | A 1.8 | D 1.61 | Q 2.19 | E 3.02 | R 2.97
E5: P 2.57 | F 1.72 | N 3.15 | A 2.95 | T 2.02 | G 2.85 | D 1.88 | C 1.96 | K 1.9 | Y 2.03 | L 2.12 | M 1.8 | H 2.91 | V 1.21 | S 1.92
L8: E 3.51 | V 3.68 | F 1.52 | R 2.94 | K 3 | S 2.55 | G 3.36 | M 1.85 | N 2.62 | P 3.84 | H 2.45 | C 2.33 | I 2.86 | D 2.7 | Q 2.66 | T 2.19 | A 2.53
G6: S 1.98 | I 1.72 | K 2.06 | V 1.97 | T 1.85 | W 1.88 | P 3.01 | L 2.51 | Q 1.91 | H 1.63 | M 1.6 | N 2.18 | F 2.94 | D 1.89 | R 2.03 | Y 2.5 | A 3.02 | E 2.19 | C 2.26
Y2: G 3.27 | L 2.68 | W 2.11 | F 2.2 | E 2.9 | T 2.9 | K 3.46 | M 1.73 | S 2.71 | R 3.3 | V 3.27 | D 3.19 | H 2.13 | A 1.43 | I 1.94 | Q 2.47 | N 4.07 | P 4.32
E7: I 1.81 | F 2.46 | R 1.55 | G 3.04 | N 1.72 | L 2.69 | M 2.81 | D 2.04 | Q 1.66 | H 2.26 | W 1.72 | T 2.62 | S 2.04 | K 1.76 | V 1.5 | A 1.96 | P 2.64 | Y 1.44

Variants of: B2
Test: as above
Details: c terminus: a fixed tail appended

Protein stability index of substitutions, site by site:
Q21: S 2.47 | C 1.68 | H 3.2 | D 2.93 | Y 2.11 | G 2.55 | M 1.85 | L 1.75 | N 3.59 | W 1.41 | P 2.91 | F 2.42 | T 2.29 | K 2.81 | V 2.83
Q23: E 3.39 | C 2.23 | I 2.14 | D 3.04 | W 1.84 | S 2.54 | H 2.55 | R 2.87 | A 2.81 | L 2.81 | N 2.98 | P 3.04 | K 2.22 | G 1.8 | M 2.2 | V 2.6
D15: T 2.26 | L 2.17 | H 3.02 | A 2.6 | V 2.85 | S 2.19 | P 3.23 | K 2.23 | Y 2.1 | W 1.39 | I 3.2 | G 2.08 | M 2.05 | C 2.5 | F 2.01 | E 3 | N 2.7 | R 2.69 | Q 2.5
V24: L 2.67 | I 2.6 | A 2.85 | D 3.4 | K 3.46 | S 2.9 | P 2.94 | W 2.82 | T 3.08 | N 3.49 | R 3 | H 3.18 | F 2.53 | E 2.89 | Q 2.76 | M 3.02 | C 2.22 | Y 3
K18: G 2.88 | A 3.24 | E 3.06 | C 2.04 | Y 2.15 | D 2.74 | V 2.91 | S 3.11 | Q 3.34 | L 1.93 | W 1.48 | T 2.47 | P 3.1 | R 1.75 | N 2.83 | H 2.73 | M 2.27 | I 2.31
H19: T 1.54 | K 2.35 | A 2.81 | M 2.6 | F 1.8 | Y 1.93 | E 2.7 | I 2.55 | Q 2.42 | W 1.57 | S 2.7 | R 2.03 | L 2.72 | G 2.86 | V 2.95
R13: V 2.62 | W 1.87 | T 2.8 | Q 3.6 | Y 2.31 | P 3.06 | S 3.11
I17: D 3.57 | S 2.34 | K 2.81 | P 2.84 | T 3.16 | Q 2.72 | W 1.53 | N 3.54 | L 2.78 | A 2.88 | R 3 | E 4.11 | V 2.5 | F 2.81 | C 2.87 | H 3.42
N22: Q 2.48 | W 1.42 | Y 2.14 | F 1.68 | D 3.48 | I 1.51 | K 2.88 | C 2.56 | P 2.53 | M 1.57 | G 2.77 | T 3.02 | S 3.25 | V 1.74 | E 3.94 | L 2.27 | R 2.25 | A 2.58 | H 2.18
N14: Y 2.04 | I 2.2 | A 2.35 | K 2.41 | T 2.7 | G 2.92 | E 3.39 | L 2.55 | H 2.73 | Q 2.91 | S 2.67 | C 2.73 | D 2.96 | F 2.29 | M 2.15 | V 2.73 | W 2.25 | R 2.68 | P 3.04
V20: K 3.23 | L 2.9 | Y 2.46 | N 2.91 | I 2.69 | D 3.72 | E 3.91 | A 2.63 | T 2.87 | W 2.25 | R 3.26 | H 3.3 | C 2.15 | G 2.62 | Q 2.24
K16: A 3 | T 2.74 | N 3.18 | P 2.76 | S 2.81 | V 2.46 | D 3.13 | C 2.18 | F 2.25 | L 2.34 | Q 3.11 | Y 2.28 | W 1.86 | M 2.42 | E 3.18 | H 2.48 | R 2.75 | G 3.33 | I 2.15
